Biological target: T1, human endothelial lipase (EL) (human, UniProt Q9Y5X9 21-500, limits assumed)
T1 construct: The assay used endogenous EL in human plasma and a bought recombinant EL standard (Origene Technologies); also called human EL
T1 sequence: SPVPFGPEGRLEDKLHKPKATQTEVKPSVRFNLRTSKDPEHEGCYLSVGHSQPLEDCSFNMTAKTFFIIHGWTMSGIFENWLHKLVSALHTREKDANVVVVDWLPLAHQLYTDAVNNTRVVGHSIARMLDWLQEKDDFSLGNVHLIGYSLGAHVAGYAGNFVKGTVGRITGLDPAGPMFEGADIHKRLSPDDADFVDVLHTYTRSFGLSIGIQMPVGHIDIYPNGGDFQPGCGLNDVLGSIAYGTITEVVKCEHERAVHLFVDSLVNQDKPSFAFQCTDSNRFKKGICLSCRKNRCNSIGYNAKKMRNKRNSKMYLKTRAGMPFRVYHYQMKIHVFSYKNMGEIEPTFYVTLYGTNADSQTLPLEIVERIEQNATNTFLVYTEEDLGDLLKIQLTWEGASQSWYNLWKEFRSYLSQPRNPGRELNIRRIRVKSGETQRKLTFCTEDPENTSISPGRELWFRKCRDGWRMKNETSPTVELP
Assay: MSD immunoassay of human plasma: plate coated with MEDI5884 captures EL, which is detected with a biotinylated EL detection antibody and streptavidin sulfo-TAG. Plasma came from subjects with stable coronary heart disease given three monthly subcutaneous doses of MEDI5884 or placebo. The loss of capturable EL after dosing is what the filing calls target engagement.
Procedure: In particular, the amount of hEL bound by MEDI5884 in human plasma was measured using the Meso Scale Diagnostics (MSD) based immunoassay platform. Briefly, wells on a 96-well plate were coated with MEDI5884 and incubated overnight at 4° C. The next day, wells were washed with PBS containing 0.05% Tween20 wash buffer and blocked with I-Block Buffer (Applied Biosystems) for one hour at room temperature. Plates were washed. Then recombinant EL protein standard (Origene Technologies) and human plasma samples were added to corresponding wells and incubated for one hour at room temperature. After washing, a biotinylated EL detection antibody (Origene Technologies) was added to corresponding wells and incubated for one hour at room temperature. Plates were washed, then a streptavidin, sulfo-TAG antibody (MSD) was added to corresponding wells and incubated for one hour at room temperature. After washing, wells were incubated with Read buffer (MSD). Plates were read using the MESO Sector S 600 plate reader, and data was analyzed using the MSD Discovery Workbench software analysis program.

B1: MEDI5884 (antibody, human IgG4 S228P, kappa, V domains shown)
VH: QVQLVQSGSELKKPGASVKVSCKASGYTFTNYALNWVRQAPGQGLEWMGWINTYSGVGTYAGEFKGRFVFSLDTSVSTAYLQISSLKAEDTAVYYCARRGFYGRRFFDVWGKGTTVTVSS
VL: DIQLTQSPSSLSASVGDRVTITCKASQSVDYDVDSYMHWYQQKPGKAPKLLIYAASNLASGVPSRFSGSGSGTDFTFTISSLQPEDIATYYCQQTIEDPPTFGGGTKVEIKR
notes: Humanized anti-EL antibody, human IgG4P heavy chain and kappa light chain; It was coated on the plate as the capture reagent in the target engagement immunoassay; also called S6F1-4P
binding result: binds

Source: patent US20230045712A1 (AstraZeneca / MedImmune, published 2023)
